{"source": "patent US20110230406A1", "about": "(ADVANCED TECHNOLOGIES AND REGENERATIVE MEDICINE, published 2011)", "binders": {"B1": {"name": "phage displaying the peptide of SEQ ID NO: 4 on the pIX minor coat protein (peptide)", "peptide": "AGFRWWHTQPAHTLSYT", "modifications": "also: displayed on phage pIX minor coat protein, junction not given here", "notes": "not shown: pIX minor coat protein of the phage that carries the peptide"}, "B2": {"name": "phage displaying the peptide of SEQ ID NO: 3 on the pIX minor coat protein (peptide)", "peptide": "AGYTSFALLKSAESTLP", "modifications": "also: displayed on phage pIX coat protein fusion", "notes": "as for B1"}, "B3": {"name": "chemically synthesized peptide having SEQ ID NO: 6 (peptide)", "peptide": "AGRDSFNLLTSSPLPST", "notes": "Fmoc solid phase synthesis; used in ALPHA, SPR and the alkaline phosphatase assay"}, "B4": {"name": "chemically synthesized peptide having SEQ ID NO: 3 (peptide)", "peptide": "AGYTSFALLKSAESTLP", "notes": "Fmoc solid phase synthesis; used in ALPHA and SPR"}}, "key": {"human IgG": {"biological_target": "T1, human IgG (human)", "T1 construct": "Cross-reactivity control coated at 5 micrograms/mL; also called hIgG", "experiment": "phage ELISA titration, hIgG-coated wells, HRP anti-M13 antibody, luminescence", "description": "(§1) 96-well black ELISA plates were coated with streptavidin (Rows A through D), hIgG (Rows E and F) and human serum albumin (Rows G and H), at a concentration of 5 micrograms/mL in PBS. Plates were incubated overnight at 4° C. Plates were washed 3 times with TBST using a plate washer. To the streptavidin-coated wells in rows C and D, 100 microliters of a 4 micrograms/mL solution of biotinylated-BMP-2 (R&D Systems, Minneapolis, Minn., Item number 355-BM/CF), was introduced and allowed to sit at room temperature for 30 minutes. To all other wells, 100 microliters of PBS was introduced. The plates were again washed 3 times with TBST using the plate washer. The wells were then blocked with 250 microliters of a 3% dehydrated milk suspension in TBST and allowed to sit at room temperature for a minimum of 1 hour. Using phage concentrations determined by the phage titrations, dilutions of the phage stock solutions were performed in a separate 96-well plate to result in phage concentrations of 10¹⁰, 10⁹, 10⁸, 10⁷, 10⁶ and 10⁵ phage/well. After blocking, the ELISA plate was washed 3 times with TBST and 100 microliters of the phage dilutions were introduced to the respective ELISA plates and allowed to sit at room temperature for a minimum of 1 hour. […] The luminescence was read using a luminometer set with a gain of 150."}, "human serum albumin [1]": {"biological_target": "T2, human serum albumin (human, UniProt P02768 25-609)", "T2 construct": "Cross-reactivity control coated at 5 micrograms/mL; also called HSA", "experiment": "phage ELISA titration, HSA-coated wells, HRP anti-M13 antibody, luminescence", "description": "as §1"}, "[2]": {"biological_target": "T3, biotinylated BMP-2 (R&D Systems, Item number 355-BM/CF) (human, UniProt P12643 283-396, biotinylated (sites not given))", "T3 construct": "Bought protein, biotinylated, captured on streptavidin plates (phage ELISA) or streptavidin donor beads (ALPHA); also called bone morphogenic protein-2", "T3 sequence (P12643 283-396 limits assumed)": "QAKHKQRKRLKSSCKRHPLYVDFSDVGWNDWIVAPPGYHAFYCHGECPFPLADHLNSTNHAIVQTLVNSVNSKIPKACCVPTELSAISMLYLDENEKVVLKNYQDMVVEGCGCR", "experiment": "phage ELISA titration, biotinylated BMP-2 captured on streptavidin-coated wells, HRP anti-M13 antibody, luminescence", "description": "(§2) 96-well black ELISA plates were coated with streptavidin (Rows A through D), hIgG (Rows E and F) and human serum albumin (Rows G and H), at a concentration of 5 micrograms/mL in PBS. Plates were incubated overnight at 4° C. Plates were washed 3 times with TBST using a plate washer. To the streptavidin-coated wells in rows C and D, 100 microliters of a 4 micrograms/mL solution of biotinylated-BMP-2 (R&D Systems, Minneapolis, Minn., Item number 355-BM/CF), was introduced and allowed to sit at room temperature for 30 minutes. To all other wells, 100 microliters of PBS was introduced. The plates were again washed 3 times with TBST using the plate washer. The wells were then blocked with 250 microliters of a 3% dehydrated milk suspension in TBST and allowed to sit at room temperature for a minimum of 1 hour. Using phage concentrations determined by the phage titrations, dilutions of the phage stock solutions were performed in a separate 96-well plate to result in phage concentrations of 10¹⁰, 10⁹, 10⁸, 10⁷, 10⁶ and 10⁵ phage/well. After blocking, the ELISA plate was washed 3 times with TBST and 100 microliters of the phage dilutions were introduced to the respective ELISA plates and allowed to sit at room temperature for a minimum of 1 hour. The ELISA plate was again washed 3 times with TBST using the plate washer and 100 microliters of an HRP-conjugated Anti-M13 Phage Mab (1:5000 dilution in PBS) was introduced to each well. The plates were allowed to sit at room temperature for 1 hour after which time the plates were washed 3 times with TBST. Next, a POD HRP-substrate was introduced to each well. The luminescence was read using a luminometer set with a gain of 150."}, "[3]": {"biological_target": "T3, biotinylated BMP-2 (R&D Systems, Item …)", "experiment": "ALPHA, biotinylated BMP-2 at 0.825 micrograms/mL, Ni-acceptor and streptavidin-donor beads", "description": "Diluted stock of biotinylated BMP-2 (R&D Systems, Minneapolis, Minn., Item number 355-BM/CF) at 3.3 micrograms/ml was prepared in 2× assay buffer (PBS, 0.01% Tween-80, 0.05% BSA). Chemically synthesized peptides having SEQ ID NO: 1, SEQ ID NO: 2, SEQ ID NO: 3, and SEQ ID NO: 6 were prepared using standard, automated Fluorenylmethyloxycarbonyl (Fmoc) solid phase peptide synthesis procedures. Each peptide solution for the assay was prepared from a 100 microgram/mL stock solution. The stock solution was serially diluted in ½ log steps in assay buffer resulting in peptide concentrations of 100, 33.3, 11.1, 3.70, 1.23, 0.41, 0.14, 0.046, 0.015, 0.0051, 0.0017 and 0.00056 micrograms/mL. Subsequently, serially diluted peptides were added to the corresponding wells containing the 10 microliters of the 3.3 microgram/mL solution of biotinylated BMP-2. Final assay test concentration for biotinylated BMP-2 was 0.825 micrograms/mL. Final peptide concentrations were 25, 8.3, 2.8, 0.93, 0.31, 0.10, 0.03, 0.01, 0.003, 0.001, 0.0003 and 0.0001 micrograms/mL. Next, Nickel (Ni)-acceptor and streptavidin (SA)-donor beads (Perkin Elmer, Waltham, Mass., Item number 6760619M) were diluted 1:100 in assay buffer prior to adding 20 microliters to each test well. […] The emission of the plate was read using a dual wavelength fluorometer (Perkin Elmer (Waltham, Mass.) Envision 2101 Multilabel Reader)."}, "Streptavidin": {"biological_target": "Streptavidin", "experiment": "phage ELISA titration, streptavidin-coated wells without BMP-2, HRP anti-M13 antibody, luminescence", "description": "as §1"}, "human serum albumin [4]": {"biological_target": "T2, human serum albumin", "experiment": "phage ELISA, HSA-coated wells, HRP anti-M13 antibody, luminescence", "description": "as §2"}, "[5]": {"biological_target": "T4, rhBMP-2 (R&D Systems, Item number 355-BM/CF) (human, UniProt P12643 283-396)", "T4 construct": "Coupled to a CM4 chip by EDC/NHS in SPR; also called human recombinant BMP-2", "T4 sequence (P12643 283-396 limits assumed)": "as above", "experiment": "SPR (Biacore S51), rhBMP-2 on CM4 chip, peptide at 5 micromolar, 1:1 Langmuir fit, N=3", "description": "Peptide binding affinity to BMP-2 was evaluated for SEQ ID NO: 3 and SEQ ID NO: 6 by surface plasmon resonance measurements. Measurements were performed on a Biacore S51 (Biacore Life Sciences, Piscataway, N.J.) instrument using a CM4 Series-S sensor chip. rhBMP-2 (R&D Systems, Minneapolis, Minn., Item number 355-BM/CF) was immobilized on the sensor chip using 1-ethyl-3[3-dimethylaminopropyl]carbodiimide hydrochloride (EDC)/N-hydroxysuccinimide (NHS) coupling chemistry. […] Data were fit to a 1:1 Langmuir binding model using Biacore Analysis Software (Biacore Life Sciences, Piscataway, N.J.).\nThe data shown in Table 2 are average equilibrium dissociation constants with an N value of 3."}}, "note": "No end group written: not given here."}
{"binder": "B1", "values": [{"measurement": "EC50 (read off the curve)", "setting": "human IgG", "value": "~1e+08", "unit": "phage/well"}, {"measurement": "binding result", "setting": "human serum albumin [1]", "value": "binds"}, {"measurement": "binding result", "setting": "[2]", "value": "binds"}]}
{"binder": "AGPPGPYIAASAFLALK (Fmoc solid phase synthesis)", "note": "[chemically synthesized peptide having SEQ ID NO: 2]", "values": [{"measurement": "binding result", "setting": "[3]", "value": "binds"}]}
{"binder": "B2", "values": [{"measurement": "binding result", "setting": "Streptavidin", "value": "no binding (tested: 1.00E+10 phage/well)"}, {"measurement": "binding result", "setting": "human serum albumin [4]", "value": "no binding (tested: 10^9 phage/mL)"}, {"measurement": "EC50 (read off the curve)", "setting": "[2]", "value": "~1e+08", "unit": "phage/well"}]}
{"binder": "AGLPLQSMSRLSYDSLS (Fmoc solid phase synthesis)", "note": "[chemically synthesized peptide having SEQ ID NO: 1]", "values": [{"measurement": "binding result", "setting": "[3]", "value": "binds"}]}
{"binder": "B3", "values": [{"measurement": "Kd", "setting": "[5]", "value": 303, "unit": "nM"}]}
{"binder": "B4", "values": [{"measurement": "Kd", "setting": "[5]", "value": 398, "unit": "nM"}]}
